Results published in PMC11449445, “Fission yeast Duc1 links to ER–PM contact sites and influences PM lipid composition and cytokinetic ring anchoring” (Journal of Cell Science, 2024).

Experiments:
His6–Scs2(1–127) [1] = molecular target: T1, His6–Scs2(1–127) (S. pombe, UniProt O60119 1-127); assay: pull-down; bead-bound His6–Scs2(1–127) (2–3 µg) incubated with 10 µg GST or GST–Duc1(351–380) in 500 µl 20 mM Tris-HCl pH 7.4, 150 mM NaCl, 0.1% NP-40, 30 min at 4°C; three washes; SDS-PAGE, Coomassie blue; conditions: both partners purified
T1 construct: Scs2 (VAMP-associated protein, VAP), S. pombe, residues 1-127 (MSP domain), amplified from genomic DNA and cloned into pET15b; Cloned into the NdeI and BamHI sites of pET15b; also called Scs2 MSP domain; His-tagged version of the Scs2 MSP domain
T1 sequence (looked up): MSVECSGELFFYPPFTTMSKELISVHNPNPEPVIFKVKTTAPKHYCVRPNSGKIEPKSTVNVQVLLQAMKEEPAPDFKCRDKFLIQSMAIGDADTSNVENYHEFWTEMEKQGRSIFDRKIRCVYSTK

His6–Scs2(1–127) [2] = molecular target: T2, His6–Scs2(1–127) (Schizosaccharomyces pombe (strain 972 / …, UniProt O60119)); assay: pull-down (bead-bound His6-Scs2, Coomassie SDS-PAGE)
T2 chain: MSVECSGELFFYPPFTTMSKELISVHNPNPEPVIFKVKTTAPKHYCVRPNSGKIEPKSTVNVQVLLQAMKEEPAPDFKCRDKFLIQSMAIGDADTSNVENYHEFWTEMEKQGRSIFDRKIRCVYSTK

binding result (His6–Scs2(1–127) [1]): binds
binding result (His6–Scs2(1–127) [2]): binds
Binder: GKDVYKHGISNVPDDENEDDLQRYFTALEM (domain or fragment, S. pombe, UniProt O74504 351-380, looked up) [GST–Duc1(351–380)]
